Target: T1, full-length ApoE4 (human, UniProt P02649 19-317)
T1 construct: In cell lysate; P02649 is printed for the E3 allele (residues 19-317); also called ApoE4(1-299)
T1 chain: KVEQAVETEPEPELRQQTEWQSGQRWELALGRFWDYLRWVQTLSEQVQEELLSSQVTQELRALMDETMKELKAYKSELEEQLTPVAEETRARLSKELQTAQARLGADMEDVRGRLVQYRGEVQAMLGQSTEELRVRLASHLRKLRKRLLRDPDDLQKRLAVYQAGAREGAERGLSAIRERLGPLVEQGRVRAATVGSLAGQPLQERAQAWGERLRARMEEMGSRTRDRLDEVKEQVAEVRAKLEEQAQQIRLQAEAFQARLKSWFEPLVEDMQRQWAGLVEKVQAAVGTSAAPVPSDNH
Assay: immunoprecipitation from cell lysate, western blot with 1F9
Procedure: Cell Lysates preparation: Media was aspirated. Cells were treated for desired time by adding fresh media containing regulator. Media was then removed and cells rinsed with ice-cold PBS to harvest cells under nondenaturing conditions. PBS was removed, and 0.5 ml ice-cold 1× cell lysis buffer was added to each plate (10 cm). The plates were incubated on ice for 5 minutes. Cells were scraped off the plates and transferred to microcentrifuge tubes. The cells were kept on ice, and sonicated on ice three times for 5 seconds each. The samples were then microcentrifuged for 10 minutes at 14,000×g, 4° C., and the supernatant was transferred to a new tube. When necessary, lysate was stored at −80° C.
The membrane was then incubated with primary antibody anti-ApoE4 antibody 1F9 (MBL International Corp., Cat# M067-3) in 10 ml primary antibody dilution buffer with gentle agitation overnight at 4° C. […]
Lysates of full-length ApoE3, full-length ApoE4, ApoE3(1-272), and ApoE4(1-272) lysates were detected using Western blot with 1 μg/ml 1F9 (Medical and Biological Laboratories) (Lanes 1-4; FIG. 3). […] The m15G8 immunoprecipitation were then detected using Western blot with 1 μg/ml 1F9 (Lanes 5-8; FIG. 3). […]

B1: mouse monoclonal antibody 15G8 (antibody, V domains shown)
VH: EVKLVESGGGLVKPGGSLKLSCAASGFTFSFYAMSWVRQTPEKRLEWVASLSRGGSTYYPDSVKGRFTISRDNARNTLYLQMSSLRSEDTAMFYCAREGATALYAMDYWGQGTSVTVSS
VL: DVLMTQTPLSLPVSLGDQASISCRSSQSIVHSNGNTYLQWYLQKPGQSPKLLIYKVSNRFSGVPDRFSGSGSGTDFTLKISRVEAEDLGIYYCFQGSHVPWTFGGGTKLEIK
notes: Same variable regions as 12C12 and 15E10; also called m15G8; mouse 15G8
  binding result: no binding
